Values of other authors, collected in paper PMC4987277.

Target: C3d C3d (Homo sapiens) (UniProt P01024)
Sequence (P01024 1002-1303): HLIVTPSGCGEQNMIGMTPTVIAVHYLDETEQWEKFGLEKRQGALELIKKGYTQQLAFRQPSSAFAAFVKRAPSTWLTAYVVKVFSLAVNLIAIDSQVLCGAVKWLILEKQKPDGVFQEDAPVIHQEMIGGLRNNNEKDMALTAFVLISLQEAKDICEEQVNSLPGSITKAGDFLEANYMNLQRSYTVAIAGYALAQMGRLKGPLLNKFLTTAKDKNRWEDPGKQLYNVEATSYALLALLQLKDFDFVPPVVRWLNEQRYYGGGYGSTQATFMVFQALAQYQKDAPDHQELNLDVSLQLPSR

Sequence of CR2 (P20023 21-971): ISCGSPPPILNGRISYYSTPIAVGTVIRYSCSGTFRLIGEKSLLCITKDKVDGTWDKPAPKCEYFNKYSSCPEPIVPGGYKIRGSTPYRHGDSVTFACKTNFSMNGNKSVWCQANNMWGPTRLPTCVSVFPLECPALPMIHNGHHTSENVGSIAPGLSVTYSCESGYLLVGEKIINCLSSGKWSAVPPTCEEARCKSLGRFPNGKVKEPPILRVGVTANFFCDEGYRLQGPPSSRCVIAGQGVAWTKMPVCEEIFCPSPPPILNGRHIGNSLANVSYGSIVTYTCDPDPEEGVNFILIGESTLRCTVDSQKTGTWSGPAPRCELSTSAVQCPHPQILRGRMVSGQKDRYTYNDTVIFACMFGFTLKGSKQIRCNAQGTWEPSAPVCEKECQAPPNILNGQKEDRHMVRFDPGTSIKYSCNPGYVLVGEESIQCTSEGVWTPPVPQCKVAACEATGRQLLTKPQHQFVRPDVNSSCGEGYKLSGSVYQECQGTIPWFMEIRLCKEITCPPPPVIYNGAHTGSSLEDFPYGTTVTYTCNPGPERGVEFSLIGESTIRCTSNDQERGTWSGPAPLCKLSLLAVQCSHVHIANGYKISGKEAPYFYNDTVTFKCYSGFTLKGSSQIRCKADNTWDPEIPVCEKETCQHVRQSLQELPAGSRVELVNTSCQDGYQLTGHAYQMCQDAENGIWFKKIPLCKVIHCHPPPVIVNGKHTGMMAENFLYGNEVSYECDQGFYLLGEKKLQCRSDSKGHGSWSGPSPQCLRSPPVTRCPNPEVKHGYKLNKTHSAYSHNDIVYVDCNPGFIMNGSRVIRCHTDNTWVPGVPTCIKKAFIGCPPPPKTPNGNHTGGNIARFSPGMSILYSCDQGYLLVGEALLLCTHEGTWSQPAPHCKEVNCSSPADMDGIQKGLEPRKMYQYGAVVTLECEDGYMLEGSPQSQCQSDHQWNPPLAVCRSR

CR2 (from UniProt P20023)
Kd: 0.5 µM
